The target of assay [1] is SARS-CoV S protein (Urbani strain) expressed on ExpiCHO cells (SARS-CoV, UniProt P59594 14-1255). The assay is described as follows: flow cytometry on ExpiCHO cells transfected with SARS-CoV S. A general note: A flow cytometer gives signals particle by particle.
The target in assay [2] is T1, MERS-CoV S protein (London1/2012) expressed on ExpiCHO cells (MERS-CoV, UniProt K9N5Q8 18-1353).
T1 sequence: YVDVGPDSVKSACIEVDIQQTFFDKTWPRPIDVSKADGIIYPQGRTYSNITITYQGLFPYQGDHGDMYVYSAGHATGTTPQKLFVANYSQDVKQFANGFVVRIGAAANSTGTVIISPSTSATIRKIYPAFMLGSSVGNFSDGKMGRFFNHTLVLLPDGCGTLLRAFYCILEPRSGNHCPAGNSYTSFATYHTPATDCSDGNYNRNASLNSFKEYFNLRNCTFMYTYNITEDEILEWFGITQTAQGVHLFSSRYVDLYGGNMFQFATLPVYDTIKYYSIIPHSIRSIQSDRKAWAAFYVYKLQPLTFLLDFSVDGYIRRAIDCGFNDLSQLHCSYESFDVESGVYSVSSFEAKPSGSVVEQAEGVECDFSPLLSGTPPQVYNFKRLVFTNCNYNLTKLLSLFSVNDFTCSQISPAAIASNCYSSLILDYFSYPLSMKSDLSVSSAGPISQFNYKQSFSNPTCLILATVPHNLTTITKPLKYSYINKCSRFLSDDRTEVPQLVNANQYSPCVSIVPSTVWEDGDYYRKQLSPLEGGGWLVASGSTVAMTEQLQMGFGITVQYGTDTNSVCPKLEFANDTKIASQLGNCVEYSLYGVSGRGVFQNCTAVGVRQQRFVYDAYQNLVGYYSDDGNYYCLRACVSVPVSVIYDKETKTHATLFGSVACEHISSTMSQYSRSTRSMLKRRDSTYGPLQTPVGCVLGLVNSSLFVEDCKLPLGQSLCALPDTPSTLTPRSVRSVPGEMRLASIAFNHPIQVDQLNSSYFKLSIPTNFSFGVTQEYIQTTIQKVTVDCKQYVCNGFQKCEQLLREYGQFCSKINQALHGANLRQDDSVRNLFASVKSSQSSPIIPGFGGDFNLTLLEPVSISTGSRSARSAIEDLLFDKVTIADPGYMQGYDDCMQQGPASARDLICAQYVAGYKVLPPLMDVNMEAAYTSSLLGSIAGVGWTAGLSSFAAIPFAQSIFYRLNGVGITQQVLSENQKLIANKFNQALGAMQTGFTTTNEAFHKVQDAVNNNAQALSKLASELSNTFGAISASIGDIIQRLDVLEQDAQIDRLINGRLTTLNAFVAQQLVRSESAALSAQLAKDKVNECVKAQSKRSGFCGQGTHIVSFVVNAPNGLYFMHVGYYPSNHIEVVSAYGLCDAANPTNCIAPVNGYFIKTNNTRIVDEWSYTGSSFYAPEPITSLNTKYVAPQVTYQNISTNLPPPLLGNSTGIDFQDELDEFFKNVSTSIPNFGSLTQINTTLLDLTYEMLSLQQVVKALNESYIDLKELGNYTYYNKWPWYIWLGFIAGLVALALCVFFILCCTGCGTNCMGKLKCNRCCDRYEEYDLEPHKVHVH
In words: flow cytometry on ExpiCHO cells transfected with MERS-CoV S.

B1: nCoV-5 mAb (antibody, V domains shown)
VH: QMQLVQSGPEMKKPGTSVKVSCKASGFTFSKTTLQWVRQARGQRPEWIGWIVLGSGNTNYAHYFQARVTITRDMSTSTAYMELSSLSSEDTAVYYCAAEMATIQNYYYYYGMDVWGQGTTVTVSS
VL: DIQMTQSPSSLSASVGDRVTITCRASQSINYYLNWYQQKPGKAPNLLIYAASSLPGGVPSRFSGSGSGTDFTLTITSLQPEDFATYFCQQSYSTPPTFGQGTKLEIK
As for B1, the binding result was “binds” in assay [1] and “no binding (tested: 1 µg/ml)” in assay [2].

B2: nCoV-6 mAb (antibody, V domains shown)
VH: QVTLKESGPVLVKPTETLTLTCTVSVFSLSNARMGVSWIRQPPGKALEWLAHIFSSDQKSYSTSLKSRLTISKDTSKSQVVLTMTNMDPEDTGTYYCARINTAAYDYDSTTFDIWGQGTMVTVSS
VL: DIQMTQSPSSLSASVGDRVTITCRASQTISNYLNWYQQKPGKAPKLLLYAASSLQSGVPSRFSGSGSGTDFTLTISSLQLEDFATYYCQQSYSTPPTFGGGTKVEIK
B2: the figures for the binding result in assay [1] and in assay [2] were “binds” and “no binding (tested: 10 µg/ml)”, respectively.

B3: nCoV-8 mAb (antibody, V domains shown)
VH: EVLLVESGGGLVQPGRSLRLSCVVSGFTFDYYAMHWVRQAPGKGLEWVSGISWNSDNTDYADSVKGRFTISRDNAKNSLYLQMNSLKTEDTALYYCAKDISLVFWSVNPPRNGMDVWGQGTTVTVSS
VL: DIQMTQSPSSLSASVGDRVTITCRASQSIRSYLNWYQQKPGKAPNLLIYTASSLQSGVPSRFSGSGSGTDFTLTISSLQPEDFATYYCQQSYSSPLTFGGGTKVEIK
B3: the binding result is listed as “binds” in assay [1] and “no binding (tested: 1.5 µg/ml)” in assay [2].

B4: nCoV-14 mAb (antibody, V domains shown)
VH: QVQLVHSGAEVKKPGASVRVSCKASGYTYTAYYIHWLRQAPGQGLEWMGWINADNGDTHSVQKFQGRVTMTRDTSINTAYLEVSRLKSDDTAVYYCARGDVPVGTGWVFDFWGQGTLVTVSS
VL: DIQMTQSPSSLSASVGDSVTISCRASQTINNFLNWYQQKPGKAPNLLIYGAYNLQSGVPSRFSGSGSGTDFTLTISSLQPEDVAIYYCQQSLSMVTFGQGTRLDIK
B4: the figures for the binding result in assay [1] and in assay [2] were “binds” and “no binding (tested: 10 µg/ml)”, respectively.

B5: nCoV-16 mAb (antibody, V domains shown)
VH: QVQLVESGGGVVQPGRSLRLSCAASGFTFSSYGMHWVRQAPGKGLEWVAFISYDGSNIQYADSVQGRFTISRDNSKTTLYLQMNSLRVEDTAMYYCAKDLFGYCRSTSCESLDDWGQGALVTVSS
VL: DIQLTQSPSFLSASVGDRVTITCRASQGISSYLAWYQQKPGKAPKLLIYAASTLQSGVPSRFSGTGYGTEFTLTISSLQPEDFATYYCQQLNNYPLTFGGGTKVEIK
For the molecule B5, the binding result in assay [1] is listed as “binds”; in assay [2], “no binding (tested: 10 µg/ml)”.

B6: nCoV-13 mAb (antibody, V domains shown)
VH: EVQLVESGGGLVKPGGSLRLSCAASGFTFSNYNMNWVRQAPGKGLEWVSSIGSSSTYIYSADSVKGRFTISRDNAMNSLFLQMKSLRAEDTAVYYCARGFERYYFDSWGQGTLVTVSS
VL: QSVLTQPPSASGTPGQRVTISCSGSTSNIGTNVVNWYQQLPGTAPKLLIYSNNQRPSWVPDRFSGSKSGTSASLAISGLQSEDEADYYCVAWDDILNAVVFAGGTKLTVL
As to B6, the binding result was “binds” in assay [1] and “no binding (tested: 7 µg/ml)” in assay [2].

B7: nCoV-4 mAb (antibody, V domains shown)
VH: QVQLVESGGGVVQPGRSLRLSCEASGFTLRTSSLHWVRQAPGKGLEWVAVISNDGATKFYADAVKGRFTISRDNSNNKIYLQLNGLKPEDTAVYYCARETRHYSHGLNWFDPWGQGTLVNVSS
VL: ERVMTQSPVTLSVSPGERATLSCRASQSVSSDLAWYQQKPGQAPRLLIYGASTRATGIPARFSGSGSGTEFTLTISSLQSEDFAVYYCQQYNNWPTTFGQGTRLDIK
Consider B7, for which the binding result in assay [2] is “no binding (tested: 10 µg/ml)”.

B8: nCoV-11 mAb (antibody, V domains shown)
VH: LVQLVESGGGVVQPGRSLRLSCAGSGFTFSSYGMHWVRQTPGKGLEWVAVISFDGRNKFYADPVKGRFTISRDNSKNTVFLELDSLTTEDTAFYYCARDDNLDRHWPLRLGGYWGQGTLVTVSS
VL: EIVMTQSPLSLPVTLGQPASISCRSSQDLLYNDGGTDLNWFQQRPGQSPRRLIYRVSNRDSGVPDRFSGSGSGSDFTLKISRVEAEDVGIYYCMQGAHWPPTFGPGTKVEIK
B8: the binding result in assay [1] is reported as “binds”; in assay [2], “no binding (tested: 10 µg/ml)”.

B9: nCoV-15 mAb (antibody, V domains shown)
VH: EVQLVESGGGLVTPGRSLRLSCTASGFTFGDYALSWFRQAPGKGLEWVAFIRSKAYGGTTEYAASVKGRFTISRDDSQIIVYLQMDSLKTEDTAVYYCSWIHRIVSWGQGTLVTVSS
VL: DIQMTQSPSSLSASEGDRVTITCQASQDISIYLNWFQQKPGKAPKLLIYEASNLKTGVPSRFSGSGSGTDFTFTISSLQPEDIATYYCQQYDNLPYTFGQGTKLEIK
On to B9, for which the binding result in assay [1] is on record as “binds”; in assay [2] it was “no binding (tested: 0.8 µg/ml)”.

B10: nCoV-2 mAb (antibody, V domains shown)
VH: DVQLLESGGGLVQPGGSLRLSCAASGFSFSSYAMTWVRQAPGKGLEWVATMSASGDSTNDADSVKGRFTISRDNSKNTLFLQMNSLRPEDTAVYYCASPLRNYGDLLYWGQGTLVTVSS
VL: DIQMTQSPSTLSASVGDRVTITCRASQNIHRFLAWYQQKPGKAPKLLIYTASSLESGVPSRFSGSGFGTEFTLTISSLQPDDFATYYCQQYNSYSWTFGQGTKVEIK
Take B10: the binding result is listed as “binds” in assay [1] and “no binding (tested: 10 µg/ml)” in assay [2].

B11: nCoV-9 mAb (antibody, V domains shown)
VH: QVLLVESGGGVVQPGMSLRLSCAASGFTFSSYAMHWVRQAPGKGLEWVAVISYDGSTKFYADSVRGRFPISRDNSKNTVYLQMNSLRPEDTAVYYCATVSVEGYTSGWYLGTLDFWGQGTPVTVSS
VL: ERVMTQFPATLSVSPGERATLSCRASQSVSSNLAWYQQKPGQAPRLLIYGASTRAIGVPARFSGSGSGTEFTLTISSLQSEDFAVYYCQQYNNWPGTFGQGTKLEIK
For B11, the binding result is “binds” in assay [1] and “no binding (tested: 8.5 µg/ml)” in assay [2].

B12: nCoV-3 mAb (antibody, V domains shown)
VH: EVQLLESGGGLVQPGGSLRLSCTASGFTFASYAMTWVRQAPGKGLEWVSTISGGGGDTYSADSVKGRFTISRDNSKSTLYLQMNSLRAADTALYYCARLESATQPLGYYFYGMDVWGQGTTVTVSS
VL: SYELTQPPSVSVSPGQTARITCSGDALPKQYAFWYQQRPGQAPVLVISKDSERPSGIPERFSGSSSGTTVTLTISGVQAEDEADYYCHSADISATSWVFGGGTKLTVV
As to B12, the binding result in assay [1] is “binds”; in assay [2] it was “no binding (tested: 10 µg/ml)”.

B13: nCoV-12 mAb (antibody, V domains shown)
VH: QVQLVESGGGVVQPGRSLRLSCAGSGFTFSSFGLHWVRQAPGKGLEWLALISDEGRIKYYANSVKGRFFISRDNSKNTLYLQMNSLRGEDTAVYYCARDVKGHIVVMTSLDYWGQGALVTVSS
VL: DVVMTQSPLSLPVTLGQPASISCRSSQSLVSSDGDTSLSWFQQRPGQSPRRLIYEVSNRDSGVPDRFSGSGSGTDFTLKISRVEAEDVGVYYCMQGTHWPPTFGQGTKVEIK
B13: the binding result in assay [1] is recorded as “binds”; in assay [2], “no binding (tested: 0.8 µg/ml)”.

B14: nCoV-7 mAb (antibody, V domains shown)
VH: QEQVVESGGGVVQPGKSLRLSCAASGFSLNDFAIHWVRQAPGKRLEWVAIISYDGRVKFYADSVKGRFTISRDSSVHLQMDSLRPEDTGLYYCARDSSWQSTGWPINWFDRWGRGTLVTVSS
VL: EIVLTQSPATLSLSPGQRATLSCRASQSVLSSLAWYQHKPGQAPRLLIYDASSRATGVPARFSGSGSETDFTLTISSLEPEDFAVYYCQQRSNWPPTFGQGTKVEIK
As for B14, the binding result is “binds” in assay [1] and “no binding (tested: 2 µg/ml)” in assay [2].

The values above are taken from patent publication US20250263466A1 (VIR BIOTECHNOLOGY, published 2025).
